T1: CD27 expressed on the cell surface (HT1080_CD27 cells) (human, UniProt P26842 20-260)
T1 sequence (looked up): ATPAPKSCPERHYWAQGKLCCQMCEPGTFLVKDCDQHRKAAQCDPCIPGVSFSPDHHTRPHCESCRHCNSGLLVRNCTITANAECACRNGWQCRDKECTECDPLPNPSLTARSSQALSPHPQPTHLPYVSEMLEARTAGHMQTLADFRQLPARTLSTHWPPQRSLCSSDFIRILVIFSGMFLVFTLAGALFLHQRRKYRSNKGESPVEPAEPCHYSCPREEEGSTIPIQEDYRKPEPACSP

T2: CD27 protein (His-tagged, Sino Biological Inc. 10039-H08B1) (human, UniProt P26842 20-192)
T2 construct: bought; coated onto ELISA plates; also called human CD27; recombinant protein; not shown: His tag
T2 sequence (looked up): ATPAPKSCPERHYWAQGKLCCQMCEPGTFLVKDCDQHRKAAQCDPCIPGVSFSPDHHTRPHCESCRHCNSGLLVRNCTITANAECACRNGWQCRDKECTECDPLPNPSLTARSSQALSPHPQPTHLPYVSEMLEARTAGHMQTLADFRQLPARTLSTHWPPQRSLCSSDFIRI


Experiments:
[1] = target: T1, CD27 expressed on the cell surface …; assay: cell-based or functional assay
[2] = target: T2, CD27 protein (His-tagged, Sino …); assay: ELISA on coated His-tagged CD27
[3] = target: T1, CD27 expressed on the cell surface …; assay: cellular binding assay, HT1080_CD27 cells
Also: test concentration or dose not given here.

Row | IL-8, cross-linked by F(ab')2 fragment [abs. corr.] [1] | IL-8 [abs. corr.] [1] | ELISA [abs. corr.] [2] | Cellular binding assay [RFU] [3] | Binder
1 | 1.56 abs. corr. | 0.079 abs. corr. | 3.21 abs. corr. | 360 RFU | P018.S.10.A.C03 (antibody, V domains shown, V regions on human Ig constant parts; also called AB27_172) VH: QSVEESGGRLVTPGTPLTLTCTVSGFSLSSYYMIWVRQAPGKGLEWIGIINTSGGAYYATWANGRFTISRTSTTVDLKITSPTTEDTATYFCARYLDNGFYCPDLWGQGTLVIVSS VL: DIVMTQTPSSVSEAVGGTVTIKCQASEDIYTLLAWYQQKPGQPPKLLIYKASILASGVSSRFKGGGSGADFTLTISDLESADAATYYCQSTYYGAAYIGAFGGGTEVVVK
2 | 1.64 abs. corr. | 0.276 abs. corr. | 3.21 abs. corr. | 342 RFU | P018.S.08.A.A03 (antibody, V domains shown, V regions on human Ig constant parts; also called AB27_136) VH: QSLEESGGRLVTPGTPLTLTCTASGFSLSSYGMIWVRQAPGKGLEWIGMIIDVTYTYYASWAKGRFTISKTSTTVDLKMTSLTTEDTATYFCARTPGYGIYAYGNLWGQGTLVTVSS VL: AQVLTQTPSPVSAAVGGTVTISCQSSQSVYGNNWLAWYQQKPGQPPKLLIYYASTLASGVPSRFKGSGSGTQFTLTISEVQSDDAATYYCQGYYSSAAYVFGGGTEVVVK
3 | 1.58 abs. corr. | 0.546 abs. corr. | 3.21 abs. corr. | 292 RFU | P018.S.03.A.G03 (antibody, V domains shown, V regions on human Ig constant parts; also called AB27_57) VH: QEHLEESGGGLVQPEGSLTLTCKASGFDFSSNYYMSWVRQAPGTGLEWIACIDSGSSGSTWYASWVKGRFTISKTSSTTVTLQMTSLTDADTAAYFCVRDDVGSSYEYYFSLWGPGTLVTVSS VL: DVVMTQTPASVSEPVGGTVTIKCQASQSIGSFLGWYQQKPGQPPKLLIYQASKLASGVPSRFKGSGSGTEYTLTISDLESADAAAYYCQTYFGSDSYVFGGGTEVVVK
4 | 1.4 abs. corr. | 0.327 abs. corr. | 3.19 abs. corr. | 349 RFU | P018.S.01.A.C05 (antibody, V domains shown, V regions on human Ig constant parts; also called AB27_9) VH: QSLEESGGGLVQPEGSLTLTCTASGFSFSSRYYMCWVRQAPGKGLELIACIDTSSGSTWYASWAKGRFTVSKTSSTTVTLQMTSLTAADTATYFCARDLYHENSDGDWWGPGTLVTVSS VL: AFELTQTPSSVEAAVGGTVTIKCQASESINNYLAWYQQKPGQPPKLLIYKASTLASGVSSRFKGSGSGTDFTLTISGVQSDDAATYYCQSYYGASGSGSNVFGGGTEVVVK
5 | 1.05 abs. corr. | 0.281 abs. corr. | 3.22 abs. corr. | 320 RFU | P018.S.03.A.D03 (antibody, V domains shown, V regions on human Ig constant parts; also called AB27_48) VH: QEQLVESGGGLVQPEGSLTLTCTASGFSFNNNYVMSWVRQAPGKGLEWIGTIYVVSGSTYYASWVNGRFSISKTSSTTVTLQMTSLTDADTATYFCARDQLYNSGYDFDLWGPGTLVIVSS VL: AQVLTQTASPVSAAVGSTVTISCQSSQSVYNNNELSWYQQKPGQPPKLLIYQASKLASGVSSRFSGSESGTQFTLTISGVQSDDAATYYCQGTYYRSGLDNGFGGGTEVVVK
6 | 1.15 abs. corr. | 0.055 abs. corr. | 3.2 abs. corr. | 317 RFU | P018.S.07.A.E05 (antibody, V domains shown, V regions on human Ig constant parts; also called AB27_126) VH: QSLEESGGRLVTPGGSLTLTCTVSGIDLSSYAMIWVRQAPGKGLEWIGYIYGGSGSTWYASWAKGRFTISKTSSTTVDLKMTSLTTEDTATYFCARAYDSGYIGNSFYIFDPWGPGTLVTVSS VL: DIVMTQTPASVSATVGGTVTIKCQASQSISSRLAWYQQKPGQPPKLLIYSASTLASGVSSRFRGSGSGTEFTLTISDLESADGATYYCAGYGGLGITAFGGGTEVVVK
7 | 1.05 abs. corr. | 0.245 abs. corr. | 3.19 abs. corr. | 360 RFU | P018.S.03.A.D06 (antibody, V domains shown, V regions on human Ig constant parts; also called AB27_51) VH: QSLEESGGRLVTPGTPLTLTCTASGFSLSSYWMSWVRQAPGKGLEWIGYIYAGSGSAYYASWVKGRFTISKTSTTVDLKISSPTTEDTATYFCGRGNYDGYINVYDLWGPGTLVTVSS VL: DVVMTQTPSSVEAAVGGTVTIKCQASQSIGSYLAWYQKKPGQPPKLLIYAAANLAAGVPSRFKGSGSGTDFTLTINDLESADAATYYCQNNNGAYGSAYVGAFGGGTEVVVK
